In patent publication US20170246255:

Key:
[1] = tested on: T1, model thrombin substrate peptide WALAPRSFA
T1 sequence: WALAPRSFA

[2] = tested on: T2, model peptide analog WALAPRXFA (X = tertiary leucine)
T2 sequence: WALAPRXFA

thrombin
cleavage of the peptide by the enzyme, C18 reverse phase HPLC and mass spectra after 4 hours at 23° C. with 10 nM thrombin [1]: unmodified peptide was efficiently cleaved by thrombin to yield the cleavage product WALAPR | cleavage of the peptide by the enzyme, C18 reverse phase HPLC and mass spectra after 4 hours at 23° C. with 10 nM thrombin [2]: the TLE substituted peptide analog was not cleaved by thrombin under these conditions
